Measured values taken from patent US20220096547A1.

Target: human TLR5 (human) (UniProt O60602)
Experiment: cell-based or functional assay

Sequence of UniProt O60602 (O60602 21-858): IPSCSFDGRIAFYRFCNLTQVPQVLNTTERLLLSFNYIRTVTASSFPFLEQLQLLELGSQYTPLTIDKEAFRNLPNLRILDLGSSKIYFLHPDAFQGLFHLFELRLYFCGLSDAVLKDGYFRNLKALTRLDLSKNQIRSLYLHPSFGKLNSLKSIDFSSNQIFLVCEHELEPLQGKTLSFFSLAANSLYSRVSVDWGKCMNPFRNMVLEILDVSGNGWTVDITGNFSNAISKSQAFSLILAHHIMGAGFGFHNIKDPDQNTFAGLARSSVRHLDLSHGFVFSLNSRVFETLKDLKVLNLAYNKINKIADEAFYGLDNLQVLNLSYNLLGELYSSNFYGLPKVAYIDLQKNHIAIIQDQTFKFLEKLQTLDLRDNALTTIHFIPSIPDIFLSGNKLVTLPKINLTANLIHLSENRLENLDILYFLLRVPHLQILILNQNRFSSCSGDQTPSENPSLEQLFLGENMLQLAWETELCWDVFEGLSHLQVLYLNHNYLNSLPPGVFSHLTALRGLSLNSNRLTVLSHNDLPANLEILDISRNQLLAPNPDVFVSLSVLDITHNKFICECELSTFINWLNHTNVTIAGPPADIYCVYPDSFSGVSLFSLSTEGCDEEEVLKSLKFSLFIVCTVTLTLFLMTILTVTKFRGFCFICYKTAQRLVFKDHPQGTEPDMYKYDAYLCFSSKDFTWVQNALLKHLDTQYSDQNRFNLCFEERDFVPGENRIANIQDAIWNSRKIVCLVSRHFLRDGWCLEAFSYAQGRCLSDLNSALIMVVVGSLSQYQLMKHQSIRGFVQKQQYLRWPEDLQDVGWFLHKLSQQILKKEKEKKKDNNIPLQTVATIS

Substance	TLR5 activation activity (NF-κB SEAP reporter assay) compared to full-length flagellin
Salmonella typhimurium flagellin fragment Flic-6a (from UniProt P06175 71-493) (ligand)	> 50%
Salmonella typhimurium flagellin fragment Flic-7a (from UniProt P06175 71-493) (ligand)	> 50%
Salmonella typhimurium flagellin fragment Flic-8a (from UniProt P06175 71-493) (ligand)	> 50%
Salmonella typhimurium flagellin fragment Flic-12a (from UniProt P06175 37-493) (ligand)	> 50%
Salmonella typhimurium flagellin fragment Flic-14a (from UniProt P06175 37-493) (ligand)	> 50%
Salmonella typhimurium flagellin fragment Flic-15a (from UniProt P06175 37-493) (ligand)	> 50%
Salmonella typhimurium flagellin fragment Flic-20a (from UniProt P06175 51-493) (ligand)	> 50%
Salmonella typhimurium flagellin fragment Flic-21a (from UniProt P06175 51-469) (ligand)	> 50%
Salmonella typhimurium flagellin fragment Flic-22a (from UniProt P06175 51-493) (ligand)	> 50%
Salmonella typhimurium flagellin fragment Flic-23a (from UniProt P06175 51-493) (ligand)	> 50%
